Key:
[1] = molecular target: synthetic HPV16 virus-like particles (L1 and L2) purified from CV-1 cells infected with pLC201VV (human papillomavirus type 16) (UniProt P03101); experiment: ELISA, native VLPs coated in PBS pH 7.5
[2] = molecular target: synthetic HPV16 virus-like particles (L1 and L2) purified from CV-1 cells infected with pLC201VV (human papillomavirus type 16) (UniProt P03101); experiment: ELISA, denatured particles coated in carbonate buffer pH 9.6

UniProt P03101, sequence (P03101 whole entry, chain 1 of 2): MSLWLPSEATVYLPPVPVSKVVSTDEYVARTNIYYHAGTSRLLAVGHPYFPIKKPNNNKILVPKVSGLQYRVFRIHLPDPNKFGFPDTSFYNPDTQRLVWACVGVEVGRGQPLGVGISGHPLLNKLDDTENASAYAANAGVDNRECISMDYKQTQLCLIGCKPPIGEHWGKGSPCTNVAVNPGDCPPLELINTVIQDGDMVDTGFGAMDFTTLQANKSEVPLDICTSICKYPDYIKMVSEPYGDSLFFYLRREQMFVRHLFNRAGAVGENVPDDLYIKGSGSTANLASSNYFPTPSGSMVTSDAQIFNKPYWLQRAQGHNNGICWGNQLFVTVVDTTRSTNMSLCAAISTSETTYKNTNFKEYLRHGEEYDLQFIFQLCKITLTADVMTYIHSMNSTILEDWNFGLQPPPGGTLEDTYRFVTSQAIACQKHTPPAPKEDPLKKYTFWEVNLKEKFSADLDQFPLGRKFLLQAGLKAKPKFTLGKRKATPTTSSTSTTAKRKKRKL
UniProt P03101, sequence (P03107 whole entry, chain 2 of 2, further chain): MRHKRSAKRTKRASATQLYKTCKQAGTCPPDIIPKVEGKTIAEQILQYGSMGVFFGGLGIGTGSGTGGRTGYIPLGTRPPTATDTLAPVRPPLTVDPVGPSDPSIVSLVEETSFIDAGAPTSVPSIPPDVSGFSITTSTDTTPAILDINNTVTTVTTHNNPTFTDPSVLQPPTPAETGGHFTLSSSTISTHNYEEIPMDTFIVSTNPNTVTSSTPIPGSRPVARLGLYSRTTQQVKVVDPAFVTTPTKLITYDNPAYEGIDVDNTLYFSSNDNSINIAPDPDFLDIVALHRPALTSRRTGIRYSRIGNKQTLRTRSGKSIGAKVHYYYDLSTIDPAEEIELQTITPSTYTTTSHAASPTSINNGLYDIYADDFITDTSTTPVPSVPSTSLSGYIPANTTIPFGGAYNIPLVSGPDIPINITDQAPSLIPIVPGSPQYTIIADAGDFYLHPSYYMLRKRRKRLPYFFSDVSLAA

“anti-HPV16 L1 monoclonal antibody Camvir 1” was tested. Which OD [1] did it give?
Its OD is 0.064 OD.

And the OD [2]?
Its OD is 0.107 OD.
